# From article PMC6955894, “Development of Aptamer-Based TID Assays Using Thermophoresis and Microarrays”
# B1: V7t1-NH2/cV7t1-Cy5 (mixed)
# DNA 1: TGTGGGGGTGGACGGGCCGGGTAGATAGTATGTGCATTC
# DNA 2: CCGTCCACCCCC
# modifications: 3' NH2 on strand 1, immobilized on aldehyde slide
# B2: V7t1-FITC/cV7t1-Dabcyl (mixed)
# DNA 1: B1 DNA 1
# DNA 2: CCGTCCACCCCC
# modifications: 3' Dabcyl quencher on strand 2
# Assays:
# VEGF-A165 [1] = target: T1, VEGF-A165 (human, UniProt P15692-4 27-191); assay: MST; no binding curve over 5 fluorescence units; TBSET: 10 mM Tris, 100 mM NaCl, 50 mM KCl, 0.05 mM EDTA, 0.05% Tween 20, pH 7; MST with 25 nM aptamer, 20 min at 20 C, read at room temperature; microarray in TBSETB (TBSET + 1% BSA), 1 h for the co-incubation; conditions: protein: recombinant; chain copies: 2; label: 3' FITC
# T1 sequence (P15692 other isoform, or with tags, fused parts or gaps): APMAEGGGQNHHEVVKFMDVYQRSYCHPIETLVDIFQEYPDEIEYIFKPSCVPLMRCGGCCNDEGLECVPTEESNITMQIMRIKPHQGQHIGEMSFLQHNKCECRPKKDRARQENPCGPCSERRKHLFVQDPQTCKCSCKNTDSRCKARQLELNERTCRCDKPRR
# VEGF-A165 [2] = target: T1, VEGF-A165; assay: MST; TBSET: 10 mM Tris, 100 mM NaCl, 50 mM KCl, 0.05 mM EDTA, 0.05% Tween 20, pH 7; MST with 25 nM aptamer, 20 min at 20 C, read at room temperature; microarray in TBSETB (TBSET + 1% BSA), 1 h for the co-incubation; conditions: protein: recombinant, chain copies: 2
# alpha-chymotrypsin [3] = target: T2, alpha-chymotrypsin (UniProt P00766;P00766;P00766 1-13;16-146;149-245); assay: microarray TID (competition); 1 uM protein, 1000 pM cV7t1-Cy5: no decrease; TBSET: 10 mM Tris, 100 mM NaCl, 50 mM KCl, 0.05 mM EDTA, 0.05% Tween 20, pH 7; MST with 25 nM aptamer, 20 min at 20 C, read at room temperature; microarray in T
# alpha-chymotrypsin [4] = target: T2, alpha-chymotrypsin; assay: capillary-scan TID (competition); up to 7.5 uM; complement did not dissociate; TBSET: 10 mM Tris, 100 mM NaCl, 50 mM KCl, 0.05 mM EDTA, 0.05% Tween 20, pH 7; MST with 25 nM aptamer, 20 min at 20 C, read at room temperature; microarray in T
binder,measurement,setting,value
CACTACAGAGGTTGCGTCTGTCCCACGTTGTCATGGGGGGTTGGCCTG (ssDNA) [Syl3C-FITC],binding result,VEGF-A165 [1],no binding
ATACCAGTCTATTCAATTGGGCCCGTCCGTATGGTGGGTGTGCTGGCCAG (ssDNA) [Del5-1-Cy5],Kd,VEGF-A165 [2]; label: 3' Cy5,47 ± 18 nM
TGTGGGGGTGGACGGGCCGGGTAGATAGTATGTGCAATC (structured_DNA) [V7t1-Cy5],Kd,"VEGF-A165 [2]; label: 3' Cy5, G-quadruplex with three G-quartets",201 ± 28 nM
B1,binding result,alpha-chymotrypsin [3],no binding
B2,binding result,alpha-chymotrypsin [4],no binding
TGTGGGGGTGGACGGGCCGGGTAGATAGTATGTGCATTC (structured_DNA) [V7t1-FITC],Kd,"VEGF-A165 [2]; label: 5' FITC, G-quadruplex with three G-quartets",155 ± 55 nM
